From patent publication US20230212319A1, “NOVEL ANTIGEN BINDING DOMAINS AND SYNTHETIC ANTIGEN RECEPTORS INCORPORATING THE SAME” (University of Southern California, priority 2020, published 2023)

B1: 22148 (protein)
chain: MALPVTALLLPLALLLHAARPACEVQLLESGGGLIQPGGSLRLSCAASGFTFSSHAMTWVRQAPGKGLEWVSAISGSGDYTHYADSVKGRFTISRDNSKNTVYLQMNSLRAEDSAVYYCAKDEDGGSLLGHRGQGTLVTVSSGTGGGGSGGGGSGGGGSEFDVVMTQSPSSLSASVGDRVTITCMASEDIYIRLAWYQQKPGNAPKLLIYAATSLETGVPSRFSGSGSGTDFTLTISSLQPEDFATYYCQQYWSSPWTFGGGTKVEIKLEGQPKANPTVTLFPPSSEELQANKATLVCLISDFYPGAVTVAWKADGSPVKAGVETTKPSKQSNNKYAASSYLSLTPEQWKSHRSYSCQVTHEGSTVEKTVAPTECSPIKTDVITMDPKDNCSKDANDTLLLQLTNTSAYYMYLLLLLKSVVYFAIITCCLLRRTAFCCNGEKSRAKRSGSGATNFSLLKQAGDVEENPGPTSATMDWIWRILFLVGAATGAHSGPQVQLQESGGGLAQAGGSLRLSCAASGRTFSMGWFRQAPGKEREFVAAITYSGGSPYYASSVRGRFTISRDNAKNTVYLQMNSLKPEDTAVYYCAANPTYGSDWNAENWGQGTQVTVSSGSGGGGSGGGGSGGGGSFEQVQLQESGPGLVKPSQTLSLTCTVSGYSITSDYTWNWIRQPPGNGLEWIGYITYSGSTSYNPSLKSRVLISVDTSKNQVSLKLSSVTAADTAVYYCARLGRRYTMDYWGQGTTVTVSSTRASTKGPSVFPLAPSSKSTSGGTAALGCLVKDYFPEPVTVSWNSGALTSGVHTFPAVLQSSGLYSLSSVVTVPSSSLGTQTYICNVNHKPSNTKVDKRVEPKSCEVKTDSTDHVKPKETENTKQPSKSCHKPKAIVHTEKVNMMSLTVLGLRMLFAKTVAVNFLLTAKLFFLRAKRSGSGVKQTLNFDLLKLAGDVESNPGPSRGHMTEYKPTVRLATRDDVPRAVRTLAAAFADYPATRHTVDPDRHIERVTELQELFLTRVGLDIGKVWVADDGAAVAVWTTPESVEAGAVFAEIGPRMAELSGSRLAAQQQMEGLLAPHRPKEPAWFLATVGVSPDHQGKGLGSAVVLPGVEAAERAGVPAFLETSAPRNLPFYERLGFTVTADVEVPEGPRTWCMTRKPGA
B2: SEQ ID NO: 21975: bispecific SIR: MPL-175 scFv linked to hCD19-Bu12 scFv attached to hTCRα-CSDVP via MYC tag; hTCRβ-KACIAH carries a V5 tag (protein)
chain: MALPVTALLLPLALLLHAARPLEGKPIPNPLLGLDSTGSGEDLKNVFPPEVAVFEPSKAEIAHTQKATLVCLATGFYPDHVELSWWVNGKEVHSGVCTDPQPLKEQPALNDSRYCLSSRLRVSATFWQNPRNHFRCQVQFYGLSENDEWTQDRAKPVTQIVSAEAWGRADCGITSASYHQGVLSATILYEILLGKATLYAVLVSALVLMAMVKRKDSRGRAKRSGSGATNFSLLKQAGDVEENPGPTSMALPVTALLLPLALLLHAARPDQIVLTQSPAIMSASPGEKVTISCSASSSVSYMYWYQQKPGSSPKPWIYRTSNLASGVPARFSGSGSGTSYSLTISNMEAEDAAAYYCQQYHSYPTTFGGGTKLEVKGGGGSGGGGSGGGGSEVQLVESGGGLVQPKGSLKLSCAASGFSFNTYAMNWVRQAPGKGLEWIAHIRSKSNNFATYYADSVKDRFSISRDASENILFLQMNNLKTEDTAMYYCVRQGGDFPMDYWGQGTSVTVSSTREAAAKEIVLTQSPATLSLSPGERATLSCSASSSVSYMHWYQQKPGQAPRLLIYDTSKLASGIPARFSGSGSGTDFTLTISSLEPEDVAVYYCFQGSVYPFTFGQGTKLEIKRGGGGSGGGGSGGGGSQVQLQESGPGLVKPSQTLSLTCTVSGGSISTSGMGVGWIRQHPGKGLEWIGHIWWDDDKRYNPALKSRVTISVDTSKNQFSLKLSSVTAADTAVYYCARMELWSYYFDYWGQGTLVTVSSTREQKLISEEDGSGIQNPDPAVYQLRDSKSSDKSVCLFTDFDSQTNVSQSKDSDVYITDKCVLDMRSMDFKSNSAVAWSNKSDFACANAFNNSIIPEDTFFPSSDVPCDVKLVEKSFETDTNLNFQNLSVIGFRILLLKVAGFNLLMTLRLWSSRAKRSGSGVKQTLNFDLLKLAGDVESNPGPSRGHMTEYKPTVRLATRDDVPRAVRTLAAAFADYPATRHTVDPDRHIERVTELQELFLTRVGLDIGKVWVADDGAAVAVWTTPESVEAGAVFAEIGPRMAELSGSRLAAQQQMEGLLAPHRPKEPAWFLATVGVSPDHQGKGLGSAVVLPGVEAAERAGVPAFLETSAPRNLPFYERLGFTVTADVEVPEGPRTWCMTRKPGA
B3: 22149 (protein)
chain: MALPVTALLLPLALLLHAARPACEVQLLESGGGLIQPGGSLRLSCAASGFTFSSHAMTWVRQAPGKGLEWVSAISGSGDYTHYADSVKGRFTISRDNSKNTVYLQMNSLRAEDSAVYYCAKDEDGGSLLGHRGQGTLVTVSSGTGGGGSGGGGSGGGGSEFDVVMTQSPSSLSASVGDRVTITCMASEDIYIRLAWYQQKPGNAPKLLIYAATSLETGVPSRFSGSGSGTDFTLTISSLQPEDFATYYCQQYWSSPWTFGGGTKVEIKLEGQPKANPTVTLFPPSSEELQANKATLVCLISDFYPGAVTVAWKADGSPVKAGVETTKPSKQSNNKYAASSYLSLTPEQWKSHRSYSCQVTHEGSTVEKTVAPTECSGRADCGFTSESYQQGVLSATILYEILLGKATLYAVLVSALVLMAMVKRKDSRGRAKRSGSGATNFSLLKQAGDVEENPGPTSATMDWIWRILFLVGAATGAHSGPQVQLQESGGGLAQAGGSLRLSCAASGRTFSMGWFRQAPGKEREFVAAITYSGGSPYYASSVRGRFTISRDNAKNTVYLQMNSLKPEDTAVYYCAANPTYGSDWNAENWGQGTQVTVSSGSGGGGSGGGGSGGGGSFEQVQLQESGPGLVKPSQTLSLTCTVSGYSITSDYTWNWIRQPPGNGLEWIGYITYSGSTSYNPSLKSRVLISVDTSKNQVSLKLSSVTAADTAVYYCARLGRRYTMDYWGQGTTVTVSSTRASTKGPSVFPLAPSSKSTSGGTAALGCLVKDYFPEPVTVSWNSGALTSGVHTFPAVLQSSGLYSLSSVVTVPSSSLGTQTYICNVNHKPSNTKVDKRVEPKSCIPEDTFFPSPESSCDVKLVEKSFETDTNLNFQNLSVIGFRILLLKVAGFNLLMTLRLWSSRAKRSGSGVKQTLNFDLLKLAGDVESNPGPSRGHMTEYKPTVRLATRDDVPRAVRTLAAAFADYPATRHTVDPDRHIERVTELQELFLTRVGLDIGKVWVADDGAAVAVWTTPESVEAGAVFAEIGPRMAELSGSRLAAQQQMEGLLAPHRPKEPAWFLATVGVSPDHQGKGLGSAVVLPGVEAAERAGVPAFLETSAPRNLPFYERLGFTVTADVEVPEGPRTWCMTRKPGA

Legend:
Format in all cases: cell-based
HEL 92.1.7 cells = assay: JNG assay, co-culture with HEL 92.1.7 cells; details: for NFAT-GFP ASSAY: HEL 92.1.7: co-culture with HEL 92.1.7
Protocol: Cellular supernatant is collected and assayed for the induction of cytokines (e.g., IL2).
JNG (Jurkat cells expressing EGFP under an NFAT promoter) were infected with lentiviral vectors encoding different single chain and multi-chain SARs by spinfection in the presence of 8 µg/ml of Polybrene® (Sigma, Catalog no. H9268). The Jurkat-NFAT-GFP cells are engineered in such a way that the IL-2 promoter, which carries NFAT binding sites, is cloned upstream of the GFP gene. These cells have been used to study signaling via TCR and CAR. The different SARs were stably expressed in Jurkat NFAT-GFP cells by lentiviral mediated gene transfer, followed by selection with puromycin or blasticidin. No drug selection was used in case the construct lacked an antibiotic resistance gene. The SAR-expressing Jurkat-NFAT-GFP cells were cocultured with the target cells at E:T ratio of approximately 1:2 for approximately 4 hours to 18 hours. When the interaction between SIRs and their target antigen results in activation of the NFAT pathway, GFP expression is induced. […] GFP expression was monitored by FACS analysis. The Jurkat-NFAT-GFP (parental) cells were used as control. The structure of different constructs can be determined based on their names. […] The sequence of the other constructs in the table can be similarly determined from their names and by referring to the different Tables of this disclosure that provide the names and SEQ ID NO of the different modules. Alternatively, the composition and modular architecture of the different SAR constructs can be determined from their sequences by bioinformatics tools, including using nucleic acid and amino acids homology searches. […] The signs +/-, +, 2+ etc. after the name of the cell lines indicate the relative degree of positivity on the Jurkat-NFAT-GFP assay as measured by the % GFP positive cells after culture of the SAR expressing Jurkat-NFAT-GFP cells with that cell line above the % GFP cells observed in parental Jurkat NFAT-GFP cells serving as controls. […]

RAJI cells = assay: JNG assay, co-culture with RAJI cells; details: for NFAT-GFP ASSAY: Raji: JNG cells expressing construct, co-culture with Raji
In short: (§1)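 Read-out is NFAT-driven GFP measured by flow cytometry after ~4–18 h co-culture of SAR-expressing JNG cells with target cells (E:T about 1:2). SARs were introduced by lentiviral spinfection and selected with puromycin or blasticidin when possible; scores (+/- to 5+ ≈ 5–50% GFP+) are relative to parental JNG cells.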

Nalm6 cells = assay: JNG assay, co-culture with Nalm6 cells; details: co-culture with Nalm6 cells
In short: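 Read-out is % GFP-positive cells by flow cytometry after ~4–18 h co-culture (E:T ≈1:2) of target lines with SAR-transduced, puromycin/blasticidin-selected JNG cells. Grades +/-, +, 2+…5+ correspond to approximately 5%, 10%, 20%, 30%, 40%, 50% GFP+ over parental JNG controls.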

U266 cells = assay: JNG NFAT-GFP induction on co-culture with U266
L363 cells = assay: JNG assay, co-culture with L363 cells; details: co-culture with L363
In short: as §1

Row | Molecule | NFAT-GFP ASSAY: HEL 92.1.7 (HEL 92.1.7 cells) | NFAT-GFP ASSAY: Raji (RAJI cells) | GFP induction (HEL 92.1.7 cells; co-culture with MPL expressing HEL 92.1.7 cells) | GFP induction / activity (RAJI cells; co-culture with RAJI cells) | GFP induction / activity (Nalm6 cells) | NFAT-GFP ASSAY: U266 (U266 cells) | NFAT-GFP ASSAY: L363 (L363 cells)
1 | B1 | + (refer to approximately 5%, 10%, 20%, 30%, 40% and 50% GFP positive cells) | 3+ (refer to approximately 5%, 10%, 20%, 30%, 40% and 50% GFP positive cells) | – | – | – | – | –
2 | B2 | – | – | marginal GFP induction | only weak activity | only weak activity | – | –
3 | B3 | +/- (refer to approximately 5%, 10%, 20%, 30%, 40% and 50% GFP positive cells) | 3+ (refer to approximately 5%, 10%, 20%, 30%, 40% and 50% GFP positive cells) | – | – | – | 3+ (refer to approximately 5%, 10%, 20%, 30%, 40% and 50% GFP positive cells) | + (refer to approximately 5%, 10%, 20%, 30%, 40% and 50% GFP positive cells)
